{"source": "paper PMC9378758", "biological_target": "Chikungunya virus (CHIKV) strain S27 E1 glycoprotein (Chikungunya virus strain S27)", "assay": "cryo-EM structure; cryo-ET with sub-tomogram averaging (PEET) of 591 protein spikes on liposomes after completed fusion with CHIKV at low pH, late time points, room temperature; 27.2 Å at 0.5 FSC; 3-fold symmetry seen before it was imposed"}
{"substance": "Chikungunya virus (CHIKV) strain S27 E1 glycoprotein (natural protein)", "values": [{"measurement": "stoichiometry N", "result": 3}]}
